Assay results as given in the supplement of paper PMC9112550, “Optimization of the antimicrobial peptide Bac7 by deep mutational scanning” (BMC Biology, 2022).

Tested on: Escherichia coli TOP10
Assay: shrunken log2 fold change of peptide-encoding DNA abundance (4.5 h post-induction vs induction); higher = less antimicrobial activity (less host growth inhibition)
Settings: time post-induction: 4.5 h; library: site-saturation at positions 5, 18, 19, 20
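Note: peptides expressed intracellularly from a pBAD plasmid library in pooled LB shake-flask culture, induced with 0.3% L-arabinose, DNA abundance read by NGS, three biological replicates, DESeq2 with apeglm shrinkage.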

Row | Sequence | shrunken log2 fold change
1 | RRIRMRPPRLPRPRPRPEVMPRP | 2.84
2 | RRIRMRPPRLPRPRPRPEVTPRP | 0.053
3 | RRIRMRPPRLPRPRPRPEYEPRP | 0.644
4 | RRIRMRPPRLPRPRPRPEYFPRP | -0.109
5 | RRIRMRPPRLPRPRPRPEYHPRP | -0.00495
6 | RRIRMRPPRLPRPRPRPFCSPRP | 0.0534
7 | RRIRMRPPRLPRPRPRPFCVPRP | 0.00978
8 | RRIRMRPPRLPRPRPRPFEFPRP | -0.044
9 | RRIRMRPPRLPRPRPRPFFGPRP | -0.0869
10 | RRIRMRPPRLPRPRPRPFGAPRP | 0.329
11 | RRIRMRPPRLPRPRPRPFKLPRP | 0.102
12 | RRIRMRPPRLPRPRPRPFKNPRP | 0.129
13 | RRIRMRPPRLPRPRPRPFKVPRP | -0.111
14 | RRIRMRPPRLPRPRPRPFLDPRP | -0.198
15 | RRIRMRPPRLPRPRPRPFLVPRP | -0.0501
16 | RRIRMRPPRLPRPRPRPFMIPRP | -0.0423
17 | RRIRMRPPRLPRPRPRPFMVPRP | -0.161
18 | RRIRMRPPRLPRPRPRPFPPPRP | 0.103
19 | RRIRMRPPRLPRPRPRPFQLPRP | 0.118
20 | RRIRMRPPRLPRPRPRPFQNPRP | 2.76
21 | RRIRMRPPRLPRPRPRPFREPRP | 0.2
22 | RRIRMRPPRLPRPRPRPFRHPRP | 0.0701

Row | Sequence | shrunken log2 fold change
23 | RRIRMRPPRLPRPRPRPFRTPRP | -0.21
24 | RRIRMRPPRLPRPRPRPFRWPRP | -0.0454
25 | RRIRMRPPRLPRPRPRPFSTPRP | -0.0159
26 | RRIRMRPPRLPRPRPRPFTFPRP | -0.096
27 | RRIRMRPPRLPRPRPRPFTSPRP | -0.0967
28 | RRIRMRPPRLPRPRPRPFTWPRP | 0.0653
29 | RRIRMRPPRLPRPRPRPFYFPRP | -0.569
30 | RRIRMRPPRLPRPRPRPFYKPRP | -0.266
31 | RRIRMRPPRLPRPRPRPFYMPRP | -0.054
32 | RRIRMRPPRLPRPRPRPFYVPRP | -0.514
33 | RRIRMRPPRLPRPRPRPGDLPRP | -0.0671
34 | RRIRMRPPRLPRPRPRPGEVPRP | 0.884
35 | RRIRMRPPRLPRPRPRPGFFPRP | 0.423
36 | RRIRMRPPRLPRPRPRPGFWPRP | 0.836
37 | RRIRMRPPRLPRPRPRPGGIPRP | 0.545
38 | RRIRMRPPRLPRPRPRPGGWPRP | 1.32
39 | RRIRMRPPRLPRPRPRPGHCPRP | -0.0518
40 | RRIRMRPPRLPRPRPRPGHIPRP | 0.0817
41 | RRIRMRPPRLPRPRPRPGIIPRP | -0.0597
42 | RRIRMRPPRLPRPRPRPGILPRP | 0.0644
43 | RRIRMRPPRLPRPRPRPGKGPRP | 0.0403
44 | RRIRMRPPRLPRPRPRPGKKPRP | 0.532

Row | Sequence | shrunken log2 fold change
45 | RRIRMRPPRLPRPRPRPGKYPRP | 0.0424
46 | RRIRMRPPRLPRPRPRPGLRPRP | 1.15
47 | RRIRMRPPRLPRPRPRPGMIPRP | -0.00139
48 | RRIRMRPPRLPRPRPRPGNFPRP | 0.121
49 | RRIRMRPPRLPRPRPRPGNQPRP | -0.0232
50 | RRIRMRPPRLPRPRPRPGTSPRP | 0.24
51 | RRIRMRPPRLPRPRPRPGVAPRP | 1.02
52 | RRIRMRPPRLPRPRPRPGVKPRP | 0.172
53 | RRIRMRPPRLPRPRPRPHAGPRP | 0.222
54 | RRIRMRPPRLPRPRPRPHAHPRP | -0.0269
55 | RRIRMRPPRLPRPRPRPHARPRP | 0.299
56 | RRIRMRPPRLPRPRPRPHCDPRP | -0.0833
57 | RRIRMRPPRLPRPRPRPHCNPRP | 0.043
58 | RRIRMRPPRLPRPRPRPHCQPRP | -0.0624
59 | RRIRMRPPRLPRPRPRPHDTPRP | 0.048
60 | RRIRMRPPRLPRPRPRPHESPRP | 0.432
61 | RRIRMRPPRLPRPRPRPHFTPRP | -0.173
62 | RRIRMRPPRLPRPRPRPHGNPRP | -0.184
63 | RRIRMRPPRLPRPRPRPHGTPRP | 0.148
64 | RRIRMRPPRLPRPRPRPHHCPRP | -0.27
65 | RRIRMRPPRLPRPRPRPHLIPRP | 0.133
66 | RRIRMRPPRLPRPRPRPHMMPRP | -0.135

Row | Sequence | shrunken log2 fold change
67 | RRIRMRPPRLPRPRPRPHNCPRP | -0.0504
68 | RRIRMRPPRLPRPRPRPHNIPRP | -0.0272
69 | RRIRMRPPRLPRPRPRPHNTPRP | -0.168
70 | RRIRMRPPRLPRPRPRPHPQPRP | 0.427
71 | RRIRMRPPRLPRPRPRPHPRPRP | 1.04
72 | RRIRMRPPRLPRPRPRPHQFPRP | -0.0236
73 | RRIRMRPPRLPRPRPRPHQVPRP | 0.423
74 | RRIRMRPPRLPRPRPRPHREPRP | 0.104
75 | RRIRMRPPRLPRPRPRPHRYPRP | -0.144
76 | RRIRMRPPRLPRPRPRPHSYPRP | -0.0152
77 | RRIRMRPPRLPRPRPRPHTLPRP | -0.119
78 | RRIRMRPPRLPRPRPRPHTWPRP | -0.0904
79 | RRIRMRPPRLPRPRPRPHVAPRP | 0.00497
80 | RRIRMRPPRLPRPRPRPHWHPRP | 0.0139
81 | RRIRMRPPRLPRPRPRPHWRPRP | 0.0569
82 | RRIRMRPPRLPRPRPRPHYHPRP | -0.493
83 | RRIRMRPPRLPRPRPRPHYVPRP | -0.0815
84 | RRIRMRPPRLPRPRPRPIAAPRP | 2.71
85 | RRIRMRPPRLPRPRPRPICLPRP | -0.322
86 | RRIRMRPPRLPRPRPRPICVPRP | 0.196
87 | RRIRMRPPRLPRPRPRPIDMPRP | -0.0621
88 | RRIRMRPPRLPRPRPRPIEMPRP | -0.0608

Row | Sequence | shrunken log2 fold change
89 | RRIRMRPPRLPRPRPRPIENPRP | -0.142
90 | RRIRMRPPRLPRPRPRPIFCPRP | -0.0454
91 | RRIRMRPPRLPRPRPRPIFLPRP | -0.227
92 | RRIRMRPPRLPRPRPRPIFQPRP | -0.115
93 | RRIRMRPPRLPRPRPRPIGFPRP | -0.01
94 | RRIRMRPPRLPRPRPRPIGGPRP | 0.0689
95 | RRIRMRPPRLPRPRPRPIHMPRP | -0.221
96 | RRIRMRPPRLPRPRPRPIKNPRP | 0.387
97 | RRIRMRPPRLPRPRPRPIKYPRP | 0.188
98 | RRIRMRPPRLPRPRPRPIMIPRP | -0.16
99 | RRIRMRPPRLPRPRPRPIMRPRP | 0.537
100 | RRIRMRPPRLPRPRPRPINFPRP | -0.0648
101 | RRIRMRPPRLPRPRPRPINGPRP | 0.0854
102 | RRIRMRPPRLPRPRPRPIQKPRP | 0.0394
103 | RRIRMRPPRLPRPRPRPIRQPRP | -0.0521
104 | RRIRMRPPRLPRPRPRPISLPRP | 0.0356
105 | RRIRMRPPRLPRPRPRPITNPRP | -0.192
106 | RRIRMRPPRLPRPRPRPITTPRP | -0.0401
107 | RRIRMRPPRLPRPRPRPITVPRP | 0.0226
108 | RRIRMRPPRLPRPRPRPITWPRP | -0.327
109 | RRIRMRPPRLPRPRPRPIVWPRP | -0.0994
